These are literature values, as cited in PMC4664823.

For one data set, the target named is Asp14 (UniProt position 14, GAILADVIGTT). Conditions: competition between substrate and protons; various preparations in earlier work.
The next data set addresses Glu14 (UniProt position 14, GAILAEVIGTT). The following applies: competition between substrate and protons; various preparations in earlier work.

The term pKa denotes the negative logarithm of the acid dissociation constant. Regarding E14D-EmrE (Escherichia coli; E14D), the pKa result in the data set with Asp14 was “≈5.0–6.7 and ≈5.4”.
As to “EmrE (small multidrug resistance transporter), wild type (Escherichia coli)”, in the data set with Glu14, the pKa is 6.8 to 8.5 and ≈7.3.
